“And” between values parts separate entries of the source, which are not always exact repeats. Identical values can stand only once.
Target: NaV1.7 (Homo sapiens, UniProt Q15858)
Type: cell-based
Description: To determine the voltage dependence of slow inactivation, HEK293-NaV1.7 cells were held at −120 mV and peak current determined by an initial 20 ms pulse to 0 mV. Following a series of 15,000 ms step pulses ranging from −120 to 0 mV in 20 mV increments, a subsequent 50 ms test pulse to 0 mV, preceded by a 50 ms step to −120 mV to remove fast inactivation, was used to determine the remaining current. The proportion of slow-inactivated channels was determined by normalizing peak current from the test pulse to the initial depolarization. A Boltzmann equation was fit to the current data, plotted as a function of voltage, to determine the V50 as well as the minimum proportion of activatable channels.

Chain of NaV1.7 (Q15858 whole entry): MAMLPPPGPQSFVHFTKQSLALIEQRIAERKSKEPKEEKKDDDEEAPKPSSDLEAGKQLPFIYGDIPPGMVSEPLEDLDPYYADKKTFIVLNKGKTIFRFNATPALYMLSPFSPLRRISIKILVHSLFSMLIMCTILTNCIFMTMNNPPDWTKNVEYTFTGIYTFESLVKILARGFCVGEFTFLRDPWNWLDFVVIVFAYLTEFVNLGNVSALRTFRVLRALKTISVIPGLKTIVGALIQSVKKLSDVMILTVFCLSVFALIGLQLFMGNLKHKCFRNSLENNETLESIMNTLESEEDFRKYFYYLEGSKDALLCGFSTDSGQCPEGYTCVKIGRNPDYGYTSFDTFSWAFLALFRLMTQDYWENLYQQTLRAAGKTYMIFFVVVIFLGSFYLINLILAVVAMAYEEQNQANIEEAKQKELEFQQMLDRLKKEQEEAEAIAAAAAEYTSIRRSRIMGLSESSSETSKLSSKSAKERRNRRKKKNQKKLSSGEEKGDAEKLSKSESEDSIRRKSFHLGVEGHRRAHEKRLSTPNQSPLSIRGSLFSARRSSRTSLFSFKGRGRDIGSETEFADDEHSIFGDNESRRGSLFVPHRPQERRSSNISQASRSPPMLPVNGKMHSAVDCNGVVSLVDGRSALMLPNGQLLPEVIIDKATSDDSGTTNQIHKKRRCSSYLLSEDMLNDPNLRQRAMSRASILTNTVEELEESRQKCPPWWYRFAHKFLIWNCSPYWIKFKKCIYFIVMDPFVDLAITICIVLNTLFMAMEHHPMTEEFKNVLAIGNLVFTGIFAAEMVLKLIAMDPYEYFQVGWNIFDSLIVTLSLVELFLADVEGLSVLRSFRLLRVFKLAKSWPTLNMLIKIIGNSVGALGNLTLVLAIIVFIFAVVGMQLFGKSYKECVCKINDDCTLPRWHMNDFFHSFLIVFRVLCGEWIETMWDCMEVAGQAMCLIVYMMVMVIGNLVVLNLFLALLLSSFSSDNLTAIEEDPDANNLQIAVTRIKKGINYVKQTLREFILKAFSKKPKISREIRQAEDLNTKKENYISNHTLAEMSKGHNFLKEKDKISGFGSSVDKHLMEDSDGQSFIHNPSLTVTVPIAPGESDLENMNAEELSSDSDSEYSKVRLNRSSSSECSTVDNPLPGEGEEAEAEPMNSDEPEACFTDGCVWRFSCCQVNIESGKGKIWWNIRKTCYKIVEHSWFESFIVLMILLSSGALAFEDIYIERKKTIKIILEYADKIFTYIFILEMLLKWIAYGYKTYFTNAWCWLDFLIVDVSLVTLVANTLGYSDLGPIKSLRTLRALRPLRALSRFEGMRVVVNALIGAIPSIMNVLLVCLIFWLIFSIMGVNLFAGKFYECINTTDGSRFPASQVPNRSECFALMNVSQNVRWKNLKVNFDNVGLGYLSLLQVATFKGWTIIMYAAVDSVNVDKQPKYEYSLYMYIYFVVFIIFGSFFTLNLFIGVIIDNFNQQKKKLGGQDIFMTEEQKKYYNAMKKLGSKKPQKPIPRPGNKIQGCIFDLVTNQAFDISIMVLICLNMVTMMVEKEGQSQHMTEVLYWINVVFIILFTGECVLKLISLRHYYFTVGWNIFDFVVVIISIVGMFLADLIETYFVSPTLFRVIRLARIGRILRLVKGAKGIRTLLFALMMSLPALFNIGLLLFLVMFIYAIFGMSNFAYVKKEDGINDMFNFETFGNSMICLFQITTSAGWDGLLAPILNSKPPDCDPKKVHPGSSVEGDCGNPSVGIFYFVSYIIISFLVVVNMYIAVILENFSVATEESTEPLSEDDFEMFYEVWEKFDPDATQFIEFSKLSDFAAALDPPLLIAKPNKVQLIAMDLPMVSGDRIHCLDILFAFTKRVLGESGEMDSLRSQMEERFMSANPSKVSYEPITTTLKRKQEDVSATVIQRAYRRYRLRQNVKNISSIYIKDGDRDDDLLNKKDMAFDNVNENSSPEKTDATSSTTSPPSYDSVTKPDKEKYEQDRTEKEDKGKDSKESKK
Chain of NaV1.7 (Q07699 19-218, further chain): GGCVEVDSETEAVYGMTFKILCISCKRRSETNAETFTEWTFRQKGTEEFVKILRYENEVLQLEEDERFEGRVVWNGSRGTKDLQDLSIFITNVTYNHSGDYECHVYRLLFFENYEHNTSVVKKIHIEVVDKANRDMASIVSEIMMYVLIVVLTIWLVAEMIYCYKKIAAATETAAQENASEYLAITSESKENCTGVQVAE

B1: TMEM233 (protein)
chain: MSQYAPSPDFKRALDSSPEANTEDDKTEEDVPMPKNYLWLTIVSCFCPAYPINIVALVFSIMSLNSYNDGDYEGARRLGRNAKWVAIASIIIGLLIIGISCAVHFTRNA
  Bottom (Boltzmann sigmoidal, best-fit value): 0.2301
  Slope (Boltzmann sigmoidal, best-fit value): -7.153
  Top (Boltzmann sigmoidal, best-fit value): 1.031
  V50 (Boltzmann sigmoidal, best-fit value): -65.56 mV
Fig. 6g, NaV1.7/β1/TMEM233, mean of n = 13, NaV1.7/β1 (Mock) mean -59.66, n = 11
  V50, mean: -65.18
Fig. 6g, NaV1.7/β1/TMEM233, single replicates
  V50, individual values: -60.38 and -71.19 and -68.09 and -76.79 and -71.43 and -68.52 and -59.19 and -60.32 and -58.12 and -54.99 and -67.1 and -64.07 and -67.16
Fig. 6g, unpaired t test P = 0.0108, 95% CI -9.637 to -1.412
  V50, difference between means (TMEM233 - Mock) ± SEM: -5.524 ± 1.983

Reference: article PMC10147923, “Pain-causing stinging nettle toxins target TMEM233 to modulate NaV1.7 function” (Nature Communications, 2023)
